Laboratory results from PMC8445599.

Biological target: FLAG-RepoMan-Ubc9
Assay: co-immunoprecipitation (IP anti-HA, immunoblot anti-FLAG, quantified with ImageJ)
Conditions: 293FT cells; lane 18; with CFP-SUMO2(R59E); ratio of SUMOylated to non-SUMOylated FLAG-RepoMan(WT)-Ubc9 co-precipitated with HA-lamin A; input ratio 0.99 (lane …)

other: SUMOylated/non-SUMOylated: 0.31
Substance: HA–lamin A (WT) (from UniProt P02545) V494E; V495E
